Reference: US5919635A (ZymoGenetics, Inc., priority 1995, dated 1999)

Experiments:
rat glucagon receptor = biological target: T1, rat glucagon receptor (Rattus norvegicus, UniProt P30082); test: cAMP response of clone KZ6/rGR-DHFR-2 by cAMP [^125 I] scintillation proximity assay; format: cell-based; details: 10 minutes at 37° C., 10 μM IBMX, read-out: ED50 (the source's name)
T1 construct: pLJ4 contained an approximately 2 kb insert encoding a 485 amino acid protein; expressed in transfected cells; host or cells: BHK/KZ6-19-46 (BHK570 with CRE-luciferase plasmid KZ6), clone KZ6/rGR-DHFR-2
Experimental: Briefly, 100 μl of 2×10^5 cells per ml KZ6/rGR-DHFR-2 cells were plated into the wells of a multi-well culture dish and grown overnight in selection media.
The cells were incubated with the agonists for 10 minutes at 37° C., 5% CO2. Following incubation, the cells were lysed by the addition of 200 μl of boiling water to each well. After 15 minutes the supernatants were collected and diluted 1:5 or 1:40 in acetate buffer (cAMP [^125 I] Scintillation Proximity Assay System (Amersham)). Samples were acetylated using triethylamine and acetic anhydride according to the protocol provided by the manufacturer.
A 100 μl aliquot of each acetylated sample was combined with 75 μl of ^125 I-cAMP, 75 μl anti-succinyl cAMP antisera and 75 μl of donkey anti-rabbit IgG coupled SPA beads (all assay solutions provided in the cAMP [^125 I] Scintillation Proximity Assay System (Amersham)) in a well of an LKB T-tray. The trays were sealed and incubated overnight with continuous shaking on a rotary platform shaker at 200 rpm. The samples were counted in a 1205 BETAPLATE liquid scintillation counter (Pharmacia LKB Instruments Inc., Gaithersburg, Md.). A standard curve of 2-128 fmol acetylated cAMP was also run. Total ^125 I-cAMP bound and non-specific binding were also determined.

[1] = biological target: rat glucagon receptor (pLJ4 transfectants) (Rattus norvegicus, UniProt P30082); test: Intracellular calcium response (fura-2 imaging) of pLJ4 BHK transfectants; format: cell-based; details: 100 nM final glucagon; resting value approximately 150 nM; from calibration experiments
Experimental: E. Intracellular Calcium Concentration Determination
Plasmid pLJ4 BHK transfectants seeded into 2 well coverglass chambers (NUNC) at 5×10^4 cells per chamber. The cells were grown for between one and three days under normal culture conditions in methotrexate selection medium. The medium was removed by aspiration, and the chambers were rinsed twice with 1 ml Imaging Buffer (Table 3). The cells were incubated for 30 minutes in the dark at room temperature with 0.5 ml of Fura-2 AM Solution (Table 3). After incubation, the Fura-2 AM Solution was removed, and the cells were rinsed with 1 ml Imaging Buffer three times. After the final rinse, 0.5 ml of buffer was left in each chamber. […]
Imaging was performed on a Nikon Diaphot inverted fluorescence microscope equipped with a mercury arc lamp and 10× and 40× Nikon Fluor dry objective lenses. Experiments were controlled and analysed using a Sun SPARC II workstation and Inovision (Research Triangle Park, N.C.) RATIOTOOL software. […] Emission images were directed by a dichroic mirror (380 nm cutoff) to a Dage-MTI 72 CCD camera equipped with a Genesis II image intensifier and digitally recorded by the software.
Intracellular calcium concentration was monitored by calculating a ratio of emission intensities at each of the two excitation wavelenths (340/380) for each pixel of the digital microscopic image field (512×480 pixels). […]

[2] = tested on: Human Glucagon Receptor (pLJ6') in BHK570 cells; test: In situ binding of iodinated glucagon, pLJ6'-transfected BHK570 clones
Experimental: To prepare the transfectants for the ^125 I-glucagon binding assay, the spent media were aspirated from the cells, and the cells were washed three times with cold (4° C.) PBS. After the final wash, the cells were covered with Binding Media (Table 2) and incubated for ten minutes at room temperature. The media were replaced with 0.5 ml of Binding Media containing 0.5 nM ^125 I-glucagon (Amersham receptor grade, specific activity 2000 Ci/mmole; Amersham). The cells were then rocked at 30° C. for one hour. […] The media were aspirated from the cells, and the cells were washed three times with cold (4° C.) PBS. After the final wash, the cells were fixed with 1 ml of 2.5% glutaraldehyde in PBS at room temperature for 20 minutes. The glutaraldehyde was removed, and the cells were rinsed three time with PBS. The slides were air dried for one hour at room temperature, dipped in liquid photographic emulsion (Eastman Kodak Co., Rochester, N.Y.) according the manufacturer's directions, and dried at room temperature in the dark for at least 30 minutes. The slides were then plated in a light-proof box for 72 hours at 4° C.
Transfected cells were selected in the presence of G418 until single colonies were visible. Single colonies were cloned using cloning cylinders.

rat glucagon receptor (pLJ4 transfectants), sequence (P30082 27-485): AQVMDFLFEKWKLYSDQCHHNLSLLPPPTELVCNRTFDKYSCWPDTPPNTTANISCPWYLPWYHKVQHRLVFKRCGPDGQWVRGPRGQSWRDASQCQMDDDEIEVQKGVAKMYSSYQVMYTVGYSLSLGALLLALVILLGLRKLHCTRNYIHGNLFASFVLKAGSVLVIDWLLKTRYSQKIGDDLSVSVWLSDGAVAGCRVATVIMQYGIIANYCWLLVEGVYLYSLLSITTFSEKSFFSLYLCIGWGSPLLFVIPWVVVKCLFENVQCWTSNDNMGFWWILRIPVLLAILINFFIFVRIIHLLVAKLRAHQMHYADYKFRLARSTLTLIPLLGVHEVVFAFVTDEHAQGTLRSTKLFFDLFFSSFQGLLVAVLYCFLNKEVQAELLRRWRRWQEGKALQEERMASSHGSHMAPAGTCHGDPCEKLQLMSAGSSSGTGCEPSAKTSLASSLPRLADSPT
T1 sequence (P30082 27-485): as above

glucagon: 29 amino acid hormone produced by the alpha cells of pancreatic islets; human glucagon (Sigma)
EC50 (rat glucagon receptor): 0.25 nM | peak intracellular calcium concentration [1]: approximately 400 nM | binding of glucagon by clones (in words) [2]: shown to bind glucagon
